Data set [1] addresses T1, yeast complex I (Vps15-Vps34-Vps30-Atg14 heterotetramer) (S. cerevisiae, UniProt P22219 1-1454; P22543 1-875; Q02948 1-557; P38270 1-344).
T1 construct: Vps15, S. cerevisiae, subunit of complex I; Vps34, S. cerevisiae, subunit of complex I; Vps30/Atg6, S. cerevisiae, subunit of complex I; Atg14, S. cerevisiae, subunit of complex I; expected mass 379 kDa; also called CI; heterotetrameric S. cerevisiae complex I; copies: 1 + 1 + 1 + 1
The data set can be described thus: SEC; purified yeast complex I mixed with purified Atg38 at 6:1 or 1:6 molar ratio (8.6 µM complex I with 1.4 or 51.7 µM Atg38), on ice 30 min, S200 10/30; 20 mM Tris pH 8.8, 150 mM NaCl, 0.5 mM TCEP; fractions on SDS-PAGE. To be noted: both partners purified. (In general: SEC sorts molecules by how far they enter the pores of the column.)

Data set [2] concerns the molecule itself. The data set can be described thus: SEC-MALS; Atg38 full-length, MIT domain and deletion variants alone on S75 10/30; 20 mM Tris pH 7.9, 300 mM NaCl, 1 mM TCEP.
For data set [3], the target named is T1, yeast complex I …. The data set can be described thus: SEC-MALS; purified yeast complex I (co-expressed, co-purified) and gel-filtration purified complex I + Atg38 on S200 10/30; 20 mM Tris pH 8.8, 150 mM NaCl, 1 mM TCEP. To be noted: both partners purified.
In data set [4] the target is T2, Atg14 (subunit of the purified yeast complex I) (S. cerevisiae, UniProt P38270 1-344).
T2 construct: Atg14, S. cerevisiae
T2 sequence (looked up): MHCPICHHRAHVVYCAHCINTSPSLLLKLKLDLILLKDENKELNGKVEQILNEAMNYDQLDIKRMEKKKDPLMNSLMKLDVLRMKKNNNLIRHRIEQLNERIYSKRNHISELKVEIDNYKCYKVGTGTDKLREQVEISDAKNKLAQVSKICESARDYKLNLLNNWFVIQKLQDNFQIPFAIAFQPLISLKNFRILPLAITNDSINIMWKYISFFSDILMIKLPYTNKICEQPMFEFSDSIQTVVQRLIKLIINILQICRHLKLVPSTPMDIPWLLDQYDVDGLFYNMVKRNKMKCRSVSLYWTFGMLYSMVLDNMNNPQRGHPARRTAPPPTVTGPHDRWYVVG
The data set can be described thus: HDX-MS; complex I, free Atg38 and gel-filtered complex I + Atg38; 2.5 µM protein, 20 mM Tris pH 8.0, 50 mM NaCl, 2 mM TCEP, 75% D2O, 3 to 3000 sec at 23°C. Particulars: both partners purified.

The next data set deals with T3, Vps15 (WD40Δ) (1 to 981) (S. cerevisiae, UniProt P22219 1-981).
T3 construct: Vps15, yeast (S. cerevisiae), residues 1 to 981, without the WD40 domain; also called Vps15Δ WD40; ScVps15 (WD40Δ)
T3 sequence (looked up): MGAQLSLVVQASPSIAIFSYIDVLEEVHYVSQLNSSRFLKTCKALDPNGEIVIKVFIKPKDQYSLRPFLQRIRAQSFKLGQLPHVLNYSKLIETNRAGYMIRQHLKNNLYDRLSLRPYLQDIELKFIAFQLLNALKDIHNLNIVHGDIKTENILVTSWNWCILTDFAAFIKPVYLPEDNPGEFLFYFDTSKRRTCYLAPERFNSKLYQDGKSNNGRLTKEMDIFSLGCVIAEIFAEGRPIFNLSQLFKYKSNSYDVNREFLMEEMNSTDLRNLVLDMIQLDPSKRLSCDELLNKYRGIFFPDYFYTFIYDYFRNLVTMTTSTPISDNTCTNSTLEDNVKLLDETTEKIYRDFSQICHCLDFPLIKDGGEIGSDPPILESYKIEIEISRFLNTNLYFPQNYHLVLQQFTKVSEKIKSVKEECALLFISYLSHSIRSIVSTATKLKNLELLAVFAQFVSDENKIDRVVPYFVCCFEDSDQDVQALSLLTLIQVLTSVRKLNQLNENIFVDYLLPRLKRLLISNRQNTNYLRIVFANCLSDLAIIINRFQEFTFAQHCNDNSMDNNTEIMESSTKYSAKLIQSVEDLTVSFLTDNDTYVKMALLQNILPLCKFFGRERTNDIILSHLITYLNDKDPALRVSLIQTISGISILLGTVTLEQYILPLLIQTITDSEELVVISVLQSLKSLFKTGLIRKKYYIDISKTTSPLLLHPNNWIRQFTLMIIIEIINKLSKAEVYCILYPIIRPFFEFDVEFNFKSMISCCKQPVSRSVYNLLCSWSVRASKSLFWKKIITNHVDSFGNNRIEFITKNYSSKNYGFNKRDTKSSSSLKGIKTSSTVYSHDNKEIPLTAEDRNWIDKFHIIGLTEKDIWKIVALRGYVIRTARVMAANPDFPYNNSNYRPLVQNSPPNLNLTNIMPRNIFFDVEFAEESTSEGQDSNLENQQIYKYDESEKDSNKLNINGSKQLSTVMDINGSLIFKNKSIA
The data set can be described thus: negative-stain EM reconstruction; co-purified yeast Vps15-Vps34 D731N and Vps15 (WD40Δ)-Vps34 D731N dimers, 2% uranyl acetate; 28 Å. Particulars: both partners purified.

Data set [5] has as its target T4, Vps15, full-length (of the Vps15-Vps34 D731N dimer) (S. cerevisiae, UniProt P22219 1-1454).
T4 construct: Vps15, yeast (S. cerevisiae), full-length; also called ScVps15
T4 sequence (looked up): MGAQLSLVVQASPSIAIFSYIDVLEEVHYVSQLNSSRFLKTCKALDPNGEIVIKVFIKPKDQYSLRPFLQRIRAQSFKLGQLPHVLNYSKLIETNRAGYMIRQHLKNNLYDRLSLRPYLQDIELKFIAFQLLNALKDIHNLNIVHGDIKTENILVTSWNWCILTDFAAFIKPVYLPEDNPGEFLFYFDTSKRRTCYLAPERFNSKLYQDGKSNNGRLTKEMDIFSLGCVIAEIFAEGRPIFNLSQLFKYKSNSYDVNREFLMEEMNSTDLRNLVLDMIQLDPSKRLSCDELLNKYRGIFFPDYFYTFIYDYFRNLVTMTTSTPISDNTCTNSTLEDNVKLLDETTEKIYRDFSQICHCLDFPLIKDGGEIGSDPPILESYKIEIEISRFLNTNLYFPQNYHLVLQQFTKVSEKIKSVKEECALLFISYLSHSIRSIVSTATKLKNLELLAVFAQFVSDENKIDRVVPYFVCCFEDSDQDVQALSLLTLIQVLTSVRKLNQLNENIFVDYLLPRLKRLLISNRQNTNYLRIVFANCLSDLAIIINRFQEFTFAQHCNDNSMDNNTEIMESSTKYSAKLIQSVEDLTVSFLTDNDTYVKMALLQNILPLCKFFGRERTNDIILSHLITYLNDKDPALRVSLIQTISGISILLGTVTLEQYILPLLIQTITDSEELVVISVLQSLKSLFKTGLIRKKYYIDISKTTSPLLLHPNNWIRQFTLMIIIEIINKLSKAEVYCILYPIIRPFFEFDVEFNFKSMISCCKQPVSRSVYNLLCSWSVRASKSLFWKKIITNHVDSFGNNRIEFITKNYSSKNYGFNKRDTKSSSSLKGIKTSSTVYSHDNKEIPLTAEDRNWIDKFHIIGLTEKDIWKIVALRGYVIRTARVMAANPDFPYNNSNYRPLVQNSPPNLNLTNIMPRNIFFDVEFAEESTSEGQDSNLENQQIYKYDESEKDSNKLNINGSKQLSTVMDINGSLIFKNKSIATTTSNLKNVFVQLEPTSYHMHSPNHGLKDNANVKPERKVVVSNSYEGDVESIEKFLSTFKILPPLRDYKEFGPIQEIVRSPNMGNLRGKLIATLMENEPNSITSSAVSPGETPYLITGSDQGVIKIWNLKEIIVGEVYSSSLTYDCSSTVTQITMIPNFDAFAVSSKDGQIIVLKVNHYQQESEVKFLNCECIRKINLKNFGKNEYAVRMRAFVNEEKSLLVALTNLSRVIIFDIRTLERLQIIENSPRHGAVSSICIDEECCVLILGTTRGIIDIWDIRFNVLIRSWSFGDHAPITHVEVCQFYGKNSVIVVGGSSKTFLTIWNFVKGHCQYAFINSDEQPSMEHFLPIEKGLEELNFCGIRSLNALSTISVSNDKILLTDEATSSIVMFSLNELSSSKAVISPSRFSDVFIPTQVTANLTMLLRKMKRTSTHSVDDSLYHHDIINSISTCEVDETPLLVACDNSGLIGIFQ
The data set is described as above. To be noted: both partners purified.

T1 sequence (Q02948 whole entry, one chain of several): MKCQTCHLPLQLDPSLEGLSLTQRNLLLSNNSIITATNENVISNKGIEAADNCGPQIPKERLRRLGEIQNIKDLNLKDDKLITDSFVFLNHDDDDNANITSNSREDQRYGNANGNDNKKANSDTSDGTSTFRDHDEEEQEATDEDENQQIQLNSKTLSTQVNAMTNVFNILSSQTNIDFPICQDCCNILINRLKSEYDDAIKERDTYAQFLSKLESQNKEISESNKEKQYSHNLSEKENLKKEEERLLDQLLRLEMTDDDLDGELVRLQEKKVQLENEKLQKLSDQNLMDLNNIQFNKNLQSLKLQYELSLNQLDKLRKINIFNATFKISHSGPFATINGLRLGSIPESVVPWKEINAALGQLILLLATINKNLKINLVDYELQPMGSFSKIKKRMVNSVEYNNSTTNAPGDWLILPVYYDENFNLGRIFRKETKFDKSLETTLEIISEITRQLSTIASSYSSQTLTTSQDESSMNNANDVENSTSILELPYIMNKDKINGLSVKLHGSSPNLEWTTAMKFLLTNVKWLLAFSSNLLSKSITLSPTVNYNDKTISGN

B1: Atg38, full-length (natural protein, S. cerevisiae, UniProt Q05789 1-226, looked up)
chain: MSTLAEVYTIIEDAEQECRKGDFTNAKAKYQEAIEVLGPQNENLSQNKLSSDVTQAIDLLKQDITAKIQELELLIEKQSSEENNIGMVNNNMLIGSVILNNKSPINGISNARNWDNPAYQDTLSPINDPLLMSILNRLQFNLNNDIQLKTEGGKNSKNSEMKINLRLEQFKKELVLYEQKKFKEYGMKIDEITKENKKLANEIGRLRERWDSLVESAKQRRDKQKN
notes: also called purified Atg38; free Atg38; source: E. coli, purified (Glutathione Sepharose, TEV, HiTrap Q, S75); not shown: GST, N-terminal, cleaved
The stoichiometry N is the number of molecules, sites or subunits per partner or assembly. Regarding B1, the “stoichiometry N” value in data set [1] was 2 Atg38 chains per complex I; in data set [2], 2; in data set [3], 1 Atg38 homodimer per complex I. Also, in data set [4], the binding result is “binds”.

B2: Vps34 D731N (KI) (enzyme, S. cerevisiae, UniProt P22543 1-875, looked up)
chain: MSLNNITFCVSQDLDVPLKVKIKSLEGHKPLLKPSQKILNPELMLIGSNVFPSSDLIVSLQVFDKERNRNLTLPIYTPYIPFRNSRTWDYWLTLPIRIKQLTFSSHLRIILWEYNGSKQIPFFNLETSIFNLKDCTLKRGFESLKFRYDVIDHCEVVTDNKDQENLNKYFQGEFTRLPWLDEITISKLRKQRENRTWPQGTFVLNLEFPMLELPVVFIEREIMNTQMNIPTLKNNPGLSTDLREPNRNDPQIKISLGDKYHSTLKFYDPDQPNNDPIEEKYRRLERASKNANLDKQVKPDIKKRDYLNKIINYPPGTKLTAHEKGSIWKYRYYLMNNKKALTKLLQSTNLREESERVEVLELMDSWAEIDIDDALELLGSTFKNLSVRSYAVNRLKKASDKELELYLLQLVEAVCFENLSTFSDKSNSEFTIVDAVSSQKLSGDSMLLSTSHANQKLLKSISSESETSGTESLPIVISPLAEFLIRRALVNPRLGSFFYWYLKSESEDKPYLDQILSSFWSRLDKKSRNILNDQVRLINVLRECCETIKRLKDTTAKKMELLVHLLETKVRPLVKVRPIALPLDPDVLICDVCPETSKVFKSSLSPLKITFKTTLNQPYHLMFKVGDDLRQDQLVVQIISLMNELLKNENVDLKLTPYKILATGPQEGAIEFIPNDTLASILSKYHGILGYLKLHYPDENATLGVQGWVLDNFVKSCAGYCVITYILGVGNRHLDNLLVTPDGHFFHADFGYILGQDPKPFPPLMKLPPQIIEAFGGAESSNYDKFRSYCFVAYSILRRNAGLILNLFELMKTSNIPDIRIDPNGAILRVRERFNLNMSEEDATVHFQNLINDSVNALLPIVIDHLHNLAQYWRT
Take B2: the binding result (with Vps15 (WD40Δ) (1 to 981); in data set [5]) was “binds” in each case.
